The labels stand for the following.
B1: porcine antibody B1 (class I) (Fab, V domains shown)
VH: EVKLVESGGGLVQPGGSLKLSCVGSGSTFSSDAVSWVRQAPGKGLEWLAGIDGDGGGGSTYYADSVKGRFTISRDNSQKTAYLQMNSLRTDDTARYYCAECPMVLLAKCSMEFWGPGVEVVVS
VL: DIVLTQTPRSLSVSPGEPASISCRSSQSLEEYGKNWLSWYQQKPGQSPRLLIYQATNRASWVPERFSGSGSGTDFTLKISRVEAEDVGVYYCFQDLQPPNGFGAGTKLELK
B2: porcine antibody G6 (class IV) (Fab, V domains shown)
VH: EVKLVESGGGLVQPGGSLTLSCVGSGYTFSSYPICWVRQAPGKGLEWLSCIDSSGSKMHLADSVLSRFTISKDNSQNTAYLQMNSLRTEDTARYYCARGRWCYGVICDMDLWGPGVEVVVSS
VL: IVLTQTPLSLSVSPGEPASISCRSSQSLEEYGKNWLSWYQQKPGQSPRLLIYQATNRASWVPERFSGSGSGTDFTLKISRVEAEDAGVYYCQQYKEFPWTFGQGTKLELK
B3: porcine antibody C9 (class III) (Fab, V domains shown)
VH: EVKLVESGGGLVQPGGSLRLSCVGSGFTFSSYEINWVRQAPGKGLEWLAVVSKIGDRTYYADSVRGRLTISRDNSQNTAYLQMNSLRTEDTARYYCVRAWCASTCLPGDIMDLWGPGVGVVVSS
VL: QTVIQEPAMSVSPGGTVTLTCAWSSGSVTTSNYPSWFQQTPGQPPRQLIYNTNSRPTGVPRRFSGKISGNKAALTITGAQAEDEADYFCGLYKRSANNIFGGGTHLTVL
B4: porcine antibody H3 (class III) (Fab, V domains shown)
VH: QEKLVESGGGLVQPGGSLILSCVGSGFTFITYEINWVRQAPGKGLEWLAVVSKIGDRTYYAHSVRGRLTISRDNSQNTAYLQMNSLRTEDTARYYCVRAWCATTCLPGDIMDLWGPGVGVIV
VL: TVIHEPAMSLSPGGTDTLTCAFSSGSITNNNYPSWFQQTPRQPPRLLIYNTNNRPTGVPSRFSGAISGNKAALTITGAQANDEADYFCTLYISIADVIFGGGTHLTVL
B5: porcine antibody F11 (class II) (Fab, V domains shown)
VH: EEKLVESGGGLVKPGGSLKLSCVGSGSTFSSDAVSWVRQAPGKGLEWLAGIDGDGYGVSTYYADSVKGRFTISRDNSQKTAYLQMNSLRTDDTARYYCAECPMVLLAKCSMEFWGPGVEVVVSS
VL: QTVIQEPAMSVSLGGTVTLTCAFSSGSVTSSNYPGWFQQTPGQPPRLLIYQTNSRPTGVPSRFSGAISGNRAALTITGAQAEDEADYFCGLWKSGTDLPFGGGTHLTVL
B6: porcine antibody F5 (class II) (antibody, V domains shown)
VH: B5 VH
VL: QTVIQEPAMSVSPGGTVTLTCAFSSGSVTTRNYPSWFQQTPGQPPRLLIGRTNNRPTGVPSRFSGVISGNKAALVITGAQANDEATYFCSLYSPDTIIFGSGTHLTVL

One assay addresses T1, African swine fever virus major capsid protein p72 (p72 capsomer, trimer) (African swine fever virus, UniProt P22776). The assay is described as follows: SPR. (In general: Surface plasmon resonance follows binding to a sensor surface in real time, without labels.)
The term Kd denotes the concentration at which binding is half-saturated. High values mean lower affinity, low ones higher affinity. Consider B1, for which binding was put at a Kd of 3.12 nM.
The same measure, in the same setting: to B2 belongs 1920 nM; to B3, 1490 nM.
Same read-out and setting: to B4 belongs 998 nM; to B5, 9.13 nM; to B6, 3160 nM.

Another assay concerns the target T1, African swine fever virus major capsid …. Briefly: SPR. This is another data set of the same source.
Broadly, the koff is the first-order rate constant of dissociation. High values mean a short-lived complex, low ones a long-lived complex. With B1, the koff came to 7.08e-05 s⁻¹.
On the same count and under the same terms, to B2 belongs 0.00952 s⁻¹; to B3, 0.00893 s⁻¹.
B4 yielded a koff of 0.00494 s⁻¹.
The same measure, in the same setting: the figure for B5 is 0.000267 s⁻¹.
Same read-out and setting: the figure for B6 is 0.0134 s⁻¹.

For the origin of these results see PMC11289257 (2024).
